# In the RNAGym collection of RNA variant scans (doi:10.1073/pnas.2313332121):
# Variants at the floor of the assay were thinned out.
# B1: TPR 5TU (parent)
# chain: GGAUCUUCUCGAUCUAACAAAAAAGACAAAUCUGCCACAAAGCUUGAGAGCAUCUUCGGAUGCAGAGGCGGCAGCCUUCGGUGGCGCGAUAGCGCCAACGUUCUCAACUAUGACACGCAAAACGCGUGCUCCGUUGAAUGGAGUUUAUCAUG
# Variants of: B1
# Assay: polymerase ribozyme fitness, log enrichment relative to wild type (log ratio); higher = more active; in vitro selection for triplet polymerase activity
# How it was run: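 Mutant libraries were PCR-built and transcribed for each subunit of a heterodimeric triplet polymerase ribozyme and selected for one round in triplicate at −7 °C, frozen, before gel excision of extended constructs and streptavidin-bead capture. Input and output libraries were Illumina-sequenced, keeping genotypes with ≥10 input reads and ≥1 read per output. Fitness is a logarithmic ratio of genotype to wild-type enrichment, in base 2, using inverse-variance-weighted replicate averages.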
row,Variant,polymerase ribozyme fitness (log ratio)
1,G25U G83A A119C,-2.78
2,G25C G83C C87G A91G,≤ -4.2
3,A24U U82G G83C,-1.55
4,A24U A30U G59A U101C U102G A121U G126C A142C,≤ -4.2
5,A24U C131U,2.4
6,G25A G34C U44A G84A G88A,≤ -4.2
7,G25A U61A,-3.19
8,A24U U53A C57A C95A C123G,0.167
9,A24G C57U,-3.7
10,A24U U53A C57G A115U U151A,≤ -4.2
11,A24U C93U G136A,-1.47
12,A24G,-1.75
13,A24U,0.541
14,G25U A30C A47C C99G U101G C105A,≤ -4.2
15,G25U C69G G83U C95U,-3
16,G25U A49C G68U G84A C87G A89U G94C C114A U148G,≤ -4.2
17,G25U A49G G59U C99A,≤ -4.2
18,A24G A37U A115G U130C U135A A150U,≤ -4.2
19,G25C G48C A66G C93A,≤ -4.2
20,G25A C38U C85G,-4.07
21,G25C C93U,-3.59
22,A24U A26U C54U G84U U127A,≤ -4.2
23,G25U A66U C93U G94U C125A G126U,≤ -4.2
24,G25U A39G U61A U77A C87U G141A U151A,≤ -4.2

row,Variant,polymerase ribozyme fitness (log ratio)
1,A24G A97U G140U,≤ -4.2
2,A24U G58C U104A G141U,-1.93
3,G25C A60G G86C C105U,-3.36
4,G25A A37G C54A C87G,≤ -4.2
5,A24G A40C U55G A97U,≤ -4.2
6,A24G C32A U33G G65A G80A A98U G126C U145G A147C,≤ -4.2
7,A24U U56A U148A,-3.8
8,A24U G94A,0.123
9,G25U C69A U82G A89G C125U C149U,≤ -4.2
10,A24U U53A U55A G68C C76A C85G,≤ -4.2
11,A24G A30G A47U A52C A60C C76A G100A C114A C118G G140A,≤ -4.2
12,A24G A39G G67U G83A C85A U104G C105U G136A,≤ -4.2
13,A24G C85A,-2.96
14,A24G C85G,≤ -4.2
15,G25C A49C C51U U53G C54A C116U G141A G152U,≤ -4.2
16,A24G C54A A106G,≤ -4.2
17,G25U C54A G80A,-4.05
18,A24U A60G C85U A97C C129U,-0.602
19,G25A A64G G88A,≤ -4.2
20,A24C U55A A73U G84U U102A A110U A119C,≤ -4.2
21,G25U A39U U55A U102C U109G C114U A120U A122G U144G,≤ -4.2
22,A24C G74C U90G C99G U127A,≤ -4.2
23,A24U A41U G86U,-3.62
24,A24U G46C A73G C87U G92C,-3.37

row,Variant,polymerase ribozyme fitness (log ratio)
1,A24U C35A A52U G84A G136A,≤ -4.2
2,G25C C76U C79G C93A C118U,≤ -4.2
3,G25U A29U C43A A64U C93U C131U,≤ -4.2
4,G25C C35U G74C C75A U148G,≤ -4.2
5,A24C G84A,≤ -4.2
6,G25U C35A A41G C54U C87U C95U,-3.99
7,A24U C51A U56A G71U G88C U102C,≤ -4.2
8,A24U U53A U56G C57U A91U,≤ -4.2
9,G25U G50U C54A A66U A91C,≤ -4.2
10,A24U A41C U45A G46C A49C G86A,-3.99
11,G25A U55A,-2.09
12,A24U A26U G48C G83A A115U C116U,≤ -4.2
13,A24G A73G G86A G141U U145A A150U,≤ -4.2
14,A24U G50A C108G C125A G141C,≤ -4.2
15,A24U G34U A47C C95G C108A A110G A138C A147C G152A,≤ -4.2
16,A24C U61A C63G G81A G94A,≤ -4.2
17,A24G U53A C95U,≤ -4.2
18,A24U C51G U55A G59C,-2.27
19,G25U A47G A60G C75A A91U A122U G141C A142G,≤ -4.2
20,A24U A30C G140A,-3.94
21,A24U A26U U55C A91G,≤ -4.2
22,A24U A26C C27G C36G G81A A98G G136U U139G A142C,≤ -4.2
23,G25A C32A A40C C123A G124A A138C,≤ -4.2
24,A24U G25A A39G A60U G83C,≤ -4.2

row,Variant,polymerase ribozyme fitness (log ratio)
1,A24G U53A C96G A122G A142C,≤ -4.2
2,A24U G59C,0.829
3,G25C U31C C32G U55A C75G C76U C79A A115G A120C C129A,≤ -4.2
4,A24C U31C U33G U53A U78A G88U U134C,≤ -4.2
5,G25U G46C G50A G62A C96U,≤ -4.2
6,A24G G86U,-3.77
7,G25U C38U A47U U56G U61A G65C C79G C103G U134A,≤ -4.2
8,A24U A39C G92U U144G U148G,≤ -4.2
9,A24U C76G A138G,≤ -4.2
10,A24U C32A,-3.85
11,A24G C54A,-3.54
12,G25C C85U A89U U135G,≤ -4.2
13,G25C C36U C57A,-3.99
14,A24G C99U,-3.56
15,A24G A52G U55A C85U A150C,≤ -4.2
16,A24U A28C U33A G59A G140U U144G U146G,≤ -4.2
17,G25U C85A,-3.88
18,G25U C85G,-3.79
19,G25U C27U C93U G143U,≤ -4.2
20,A24G U55G,-3.78
21,A24G A26U U56A C87G C123A C132G G133U,≤ -4.2
22,A24U U55G,0.467
23,A24U U55A,-0.466
24,A24C G67C G92U C99U U109G A110U,≤ -4.2

row,Variant,polymerase ribozyme fitness (log ratio)
1,A24U C35A C85U C132A,≤ -4.2
2,A24U A26G A64C G84U A97U A122C,≤ -4.2
3,G25C C87A G100U,≤ -4.2
4,A24G C93U,-3.49
5,A24U U53A U55A C95U C99A,≤ -4.2
6,G25U A26C A49G U61A C76U U104A C114U A119C,≤ -4.2
7,A24U G62U C96A G117A,-1.86
8,A24U U55C C85A,-1.34
9,G25C A66G A106C,≤ -4.2
10,A24U G80C G86U C125G A137C,≤ -4.2
11,G25C A52C U56A C85U G124C,≤ -4.2
12,G25C C132U,-3.65
13,G25U C87U C93G A138U,≤ -4.2
14,G25U A89U C96G G100A U102C C118A A119G,≤ -4.2
15,G25C C27A A28G A40U C149A,≤ -4.2
16,A24G C85A U146C,≤ -4.2
17,A24U U102C A120G A121C,-2.13
18,G25C C57U C123A C125G,-2.33
19,A24U A29G A52G A91U G126U U144G,≤ -4.2
20,A24U A29C A73G G86U A89C G140U A150G,≤ -4.2
21,G25U G46C G50C A66G U90C G100C U104A U146C G152A,≤ -4.2
22,G25C A97G,-2.53
23,G25C G46A U144C,-4.12
24,A24G C125G,-3.52

row,Variant,polymerase ribozyme fitness (log ratio)
1,A24U U31C G68U G70A G94U C116G U139G,≤ -4.2
2,G25U G42A C87G,≤ -4.2
3,A24C U31A A52G,-3.62
4,A24U U56C G62A A64G G68C G83A G124U U146A,≤ -4.2
5,G25U C132U,-2.32
6,A24G G94C,-3.21
7,G25C C57A C63A G92C A113C U134A,≤ -4.2
8,G25U C96A A142G,-4.05
9,A24C U55A C57U G58U A66G G68C C85A C149G,≤ -4.2
10,A24C U56A G68A G141A,≤ -4.2
11,G25C G86A A122U,≤ -4.2
12,G25C C75A U104A A119U U134G U135A,≤ -4.2
13,G25A C54U C96U A150U,-0.00287
14,A24U C32G U135G G143A,-4.12
15,G25U C69G U146A,-4.05
16,A24G C35U G48U A52U C125A,≤ -4.2
17,A24G G42U C72A A91U G92A U102G G136U,≤ -4.2
18,A24U C38U,0.361
19,G25C U45A G59A U90G G100A C116G,≤ -4.2
20,A24U C27G G50C C54G A64C G84A G86C C118G C149U,≤ -4.2
21,A24G C75A A113U,≤ -4.2
22,A24U A28G C36U G62A U78G G83A A91G G128C,-3.66
23,A24U A52G A106G G143A,-1.81
24,G25C C54A C76U G88A,≤ -4.2

row,Variant,polymerase ribozyme fitness (log ratio)
1,A24G U145A,-3.78
2,A24G G59C,-3.7
3,G25U G46A C57U C69A G128U A138U,≤ -4.2
4,A24U C38G C57G G83C A91U C105A C149A,≤ -4.2
5,A24U A52G,0.771
6,G25U C35G A40G A47U A91C A107G G133C,≤ -4.2
7,G25C U56A U104C A106U A113G U139G U145A,≤ -4.2
8,A24C G86C G143A U148C,≤ -4.2
9,G25U G83A,-3.4
10,A24G C54U G67A G141A A150C,≤ -4.2
11,A24U A60U G83A,-1.22
12,G25C G46C C85G C87U G124C C125U U146C,≤ -4.2
13,A24U C36G U56A C57A G71U A91C A106C A110G A138G,≤ -4.2
14,A24U A66G,-3.16
15,A24U G68A,-3.78
16,A24U G74C,-4.19
17,A24G A30U U31C U101G,-3.98
18,G25A U31A U56A G58A A60C C95U U135A,-1.75
19,A24U C85U,-0.914
20,G25C A49C C93G,≤ -4.2
21,A24G A30U G42U C72U A91G A120C,≤ -4.2
22,G25C U56G G84A A89G U130C,-2.97
23,G25U C85U C116G A120U G141C,≤ -4.2
